Read-outs that look alike come from different tables or passages of the source.
Experiments:
[1] = biological target: DS-PrPRes (Gdn-HCl treated PrPRes) (UniProt P04156)
PrPRes, native state = PrPRes, native state (UniProt P04156)

Sequence | binding signal (fluorescence ratio) ([1]; 5'-biotin) | binding signal (fluorescence ratio) (PrPRes, native state; 5'-biotin) | binding signal (fluorescence ratio) ([1]; 5'-NH2) | binding signal (fluorescence ratio) (PrPRes, native state; 5'-NH2)
GTTTTGTTACAGTTCGTTTCTTTTCCCTGTCTTGTTTTGTTGTCT [Apt2] | 4.74 | 1.69 | – | –
CTTACGGTGGGGCAATT [Apt1] | – | – | 4.74 | 1.69

From PMC3564804
